Earlier results in paper PMC5776729.

Legend:
[1] = molecular target: laminin 411 (Homo sapiens) (UniProt Q16363)
[2] = molecular target: laminin 111 (Homo sapiens) (UniProt P25391)
[3] = molecular target: laminin 111 (Mus musculus) (UniProt P19137)
[4] = molecular target: laminin 511 (Homo sapiens) (UniProt O15230)

Sequence of UniProt Q16363 (Q16363 25-1823, chain 1 of 3): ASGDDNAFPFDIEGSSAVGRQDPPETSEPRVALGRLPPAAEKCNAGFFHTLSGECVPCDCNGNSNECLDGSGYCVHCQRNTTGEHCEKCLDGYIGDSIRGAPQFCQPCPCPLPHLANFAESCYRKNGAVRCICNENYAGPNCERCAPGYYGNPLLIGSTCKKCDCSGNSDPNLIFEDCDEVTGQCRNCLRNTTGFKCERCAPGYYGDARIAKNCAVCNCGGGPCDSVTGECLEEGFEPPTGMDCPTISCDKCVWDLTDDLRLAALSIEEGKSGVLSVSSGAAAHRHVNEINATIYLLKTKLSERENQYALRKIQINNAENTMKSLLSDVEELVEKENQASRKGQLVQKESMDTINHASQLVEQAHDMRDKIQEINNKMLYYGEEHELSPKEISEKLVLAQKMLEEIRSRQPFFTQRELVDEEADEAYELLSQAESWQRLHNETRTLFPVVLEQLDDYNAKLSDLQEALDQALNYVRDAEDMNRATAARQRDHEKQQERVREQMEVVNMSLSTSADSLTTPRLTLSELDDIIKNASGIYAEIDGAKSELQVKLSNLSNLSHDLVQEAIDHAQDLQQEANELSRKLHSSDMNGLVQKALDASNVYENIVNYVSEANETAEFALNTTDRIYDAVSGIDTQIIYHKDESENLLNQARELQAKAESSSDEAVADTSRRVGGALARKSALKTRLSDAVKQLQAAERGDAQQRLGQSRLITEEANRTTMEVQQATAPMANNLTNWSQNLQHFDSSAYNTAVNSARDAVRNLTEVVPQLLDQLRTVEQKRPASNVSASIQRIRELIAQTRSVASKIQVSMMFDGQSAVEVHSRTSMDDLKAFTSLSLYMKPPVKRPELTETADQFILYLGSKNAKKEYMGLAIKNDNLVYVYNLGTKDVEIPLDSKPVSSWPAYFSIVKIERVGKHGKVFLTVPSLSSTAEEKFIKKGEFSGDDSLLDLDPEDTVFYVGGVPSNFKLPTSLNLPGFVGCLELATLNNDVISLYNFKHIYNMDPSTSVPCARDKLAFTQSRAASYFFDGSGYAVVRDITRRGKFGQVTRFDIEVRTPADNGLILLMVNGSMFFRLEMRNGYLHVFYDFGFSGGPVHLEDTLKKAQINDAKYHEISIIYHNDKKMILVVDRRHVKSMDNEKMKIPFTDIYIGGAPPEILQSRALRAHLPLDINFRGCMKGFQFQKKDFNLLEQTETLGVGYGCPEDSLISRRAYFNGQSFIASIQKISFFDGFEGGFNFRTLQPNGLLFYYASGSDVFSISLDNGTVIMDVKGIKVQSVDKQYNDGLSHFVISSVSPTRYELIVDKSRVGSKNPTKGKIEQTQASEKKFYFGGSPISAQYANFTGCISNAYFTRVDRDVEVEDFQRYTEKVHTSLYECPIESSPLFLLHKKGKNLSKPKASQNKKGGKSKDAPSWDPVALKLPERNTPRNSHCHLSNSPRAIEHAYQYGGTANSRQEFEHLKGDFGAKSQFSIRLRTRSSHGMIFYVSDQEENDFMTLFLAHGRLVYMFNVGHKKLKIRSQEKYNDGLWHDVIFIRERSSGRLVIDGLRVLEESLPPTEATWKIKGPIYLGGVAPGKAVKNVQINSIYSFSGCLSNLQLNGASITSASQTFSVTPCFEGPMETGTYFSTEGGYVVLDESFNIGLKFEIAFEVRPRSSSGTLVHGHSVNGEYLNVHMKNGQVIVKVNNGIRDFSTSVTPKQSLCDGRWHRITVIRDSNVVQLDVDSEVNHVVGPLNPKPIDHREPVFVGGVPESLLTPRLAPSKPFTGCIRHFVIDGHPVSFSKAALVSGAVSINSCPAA
Sequence of UniProt Q16363 (P07942 22-1786, chain 2 of 3, further chain): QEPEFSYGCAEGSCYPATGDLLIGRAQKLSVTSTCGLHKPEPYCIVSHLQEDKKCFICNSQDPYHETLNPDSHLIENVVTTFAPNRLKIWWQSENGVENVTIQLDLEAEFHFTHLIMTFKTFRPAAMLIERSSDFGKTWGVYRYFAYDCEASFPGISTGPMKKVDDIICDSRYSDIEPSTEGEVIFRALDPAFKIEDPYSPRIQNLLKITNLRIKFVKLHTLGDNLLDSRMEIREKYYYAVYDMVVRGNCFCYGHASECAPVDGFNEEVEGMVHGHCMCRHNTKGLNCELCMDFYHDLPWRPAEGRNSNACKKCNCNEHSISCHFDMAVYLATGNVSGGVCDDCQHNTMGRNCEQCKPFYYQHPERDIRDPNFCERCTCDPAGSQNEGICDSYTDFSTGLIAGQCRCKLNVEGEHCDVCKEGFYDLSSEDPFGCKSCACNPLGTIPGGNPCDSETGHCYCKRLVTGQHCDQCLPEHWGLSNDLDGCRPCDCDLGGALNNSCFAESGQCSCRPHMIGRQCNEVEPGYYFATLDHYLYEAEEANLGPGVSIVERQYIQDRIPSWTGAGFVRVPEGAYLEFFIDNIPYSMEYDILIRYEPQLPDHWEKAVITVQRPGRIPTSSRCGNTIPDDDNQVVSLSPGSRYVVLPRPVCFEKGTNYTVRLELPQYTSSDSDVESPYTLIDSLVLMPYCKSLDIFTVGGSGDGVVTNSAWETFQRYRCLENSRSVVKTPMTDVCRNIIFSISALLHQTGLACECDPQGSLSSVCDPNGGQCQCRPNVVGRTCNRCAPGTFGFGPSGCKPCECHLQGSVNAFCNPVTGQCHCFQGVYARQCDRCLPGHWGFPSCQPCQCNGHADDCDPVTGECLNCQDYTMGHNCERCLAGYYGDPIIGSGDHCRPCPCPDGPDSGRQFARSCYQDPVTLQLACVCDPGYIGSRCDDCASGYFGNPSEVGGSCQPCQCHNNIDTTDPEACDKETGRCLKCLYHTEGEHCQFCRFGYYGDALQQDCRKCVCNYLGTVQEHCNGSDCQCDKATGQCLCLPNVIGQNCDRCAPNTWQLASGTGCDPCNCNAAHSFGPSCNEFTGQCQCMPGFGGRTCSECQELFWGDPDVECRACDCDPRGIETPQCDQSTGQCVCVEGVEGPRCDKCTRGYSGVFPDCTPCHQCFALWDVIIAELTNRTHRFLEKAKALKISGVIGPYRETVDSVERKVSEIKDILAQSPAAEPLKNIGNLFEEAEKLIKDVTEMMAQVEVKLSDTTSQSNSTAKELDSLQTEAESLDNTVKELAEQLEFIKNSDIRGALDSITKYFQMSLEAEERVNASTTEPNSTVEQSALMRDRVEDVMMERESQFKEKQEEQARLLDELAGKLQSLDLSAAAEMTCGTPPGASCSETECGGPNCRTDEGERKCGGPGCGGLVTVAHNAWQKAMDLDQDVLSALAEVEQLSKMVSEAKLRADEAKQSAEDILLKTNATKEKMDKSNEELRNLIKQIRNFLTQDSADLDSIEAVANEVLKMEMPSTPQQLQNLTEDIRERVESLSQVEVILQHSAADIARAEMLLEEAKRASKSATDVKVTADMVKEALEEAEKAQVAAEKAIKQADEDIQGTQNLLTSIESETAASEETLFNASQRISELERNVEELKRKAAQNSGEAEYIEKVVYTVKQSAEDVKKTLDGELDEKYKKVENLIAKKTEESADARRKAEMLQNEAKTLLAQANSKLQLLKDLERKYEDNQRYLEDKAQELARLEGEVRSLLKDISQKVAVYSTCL
Sequence of UniProt Q16363 (P11047 34-1609, chain 3 of 3, further chain): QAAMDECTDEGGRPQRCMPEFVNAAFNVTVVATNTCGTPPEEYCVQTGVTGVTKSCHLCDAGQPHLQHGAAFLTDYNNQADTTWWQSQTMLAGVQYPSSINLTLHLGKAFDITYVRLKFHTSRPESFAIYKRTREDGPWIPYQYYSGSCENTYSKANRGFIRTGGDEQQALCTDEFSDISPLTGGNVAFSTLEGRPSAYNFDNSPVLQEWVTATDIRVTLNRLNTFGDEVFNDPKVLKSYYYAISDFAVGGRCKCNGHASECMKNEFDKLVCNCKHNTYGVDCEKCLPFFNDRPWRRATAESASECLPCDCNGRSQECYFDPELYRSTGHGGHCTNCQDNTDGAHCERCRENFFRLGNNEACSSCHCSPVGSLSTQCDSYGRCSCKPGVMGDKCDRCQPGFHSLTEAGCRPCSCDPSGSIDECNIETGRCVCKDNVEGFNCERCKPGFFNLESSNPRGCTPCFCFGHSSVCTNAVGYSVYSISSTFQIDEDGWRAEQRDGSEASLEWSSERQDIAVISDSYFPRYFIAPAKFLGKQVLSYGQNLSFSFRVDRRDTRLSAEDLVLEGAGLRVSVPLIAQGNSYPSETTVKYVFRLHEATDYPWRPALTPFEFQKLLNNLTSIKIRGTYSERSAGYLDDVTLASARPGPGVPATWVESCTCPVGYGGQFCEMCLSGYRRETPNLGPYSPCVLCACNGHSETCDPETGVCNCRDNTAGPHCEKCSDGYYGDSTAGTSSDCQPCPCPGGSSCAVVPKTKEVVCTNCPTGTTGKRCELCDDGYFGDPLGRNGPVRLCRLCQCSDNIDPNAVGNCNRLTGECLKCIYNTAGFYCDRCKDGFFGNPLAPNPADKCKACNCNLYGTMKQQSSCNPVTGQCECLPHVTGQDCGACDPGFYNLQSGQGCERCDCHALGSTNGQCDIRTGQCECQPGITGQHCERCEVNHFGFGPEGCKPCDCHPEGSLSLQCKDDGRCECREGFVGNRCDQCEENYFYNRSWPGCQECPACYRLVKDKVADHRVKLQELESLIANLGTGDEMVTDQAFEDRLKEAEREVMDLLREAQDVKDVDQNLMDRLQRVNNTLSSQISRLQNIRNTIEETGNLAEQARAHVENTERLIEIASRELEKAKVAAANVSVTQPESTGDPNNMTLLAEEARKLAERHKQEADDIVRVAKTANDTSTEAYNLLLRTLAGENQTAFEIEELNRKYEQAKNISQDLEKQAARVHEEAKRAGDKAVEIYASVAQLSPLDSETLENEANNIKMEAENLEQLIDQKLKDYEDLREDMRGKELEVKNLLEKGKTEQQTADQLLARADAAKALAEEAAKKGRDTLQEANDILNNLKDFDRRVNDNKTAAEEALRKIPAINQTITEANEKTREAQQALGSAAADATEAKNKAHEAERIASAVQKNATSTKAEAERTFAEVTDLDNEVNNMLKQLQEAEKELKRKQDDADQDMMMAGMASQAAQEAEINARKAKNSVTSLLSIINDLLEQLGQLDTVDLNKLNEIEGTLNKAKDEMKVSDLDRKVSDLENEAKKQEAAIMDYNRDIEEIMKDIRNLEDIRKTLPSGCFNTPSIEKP

Kd [1]: 9.2 nM
Kd [2]: 11.1 nM
Kd [3]: 18.8 nM
Kd [4]: 8.3 nM
Substance: Factor XI (from UniProt P03951)
